The supplement of paper PMC9170038

Tested on: MS2 coat protein
Experiment: apparent KD of MS2 coat protein; designed switch direction (-1 OFF switch, 1 ON switch): -1; higher = weaker reporter binding
Outline: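 Designed RNA switches were transcribed on Illumina chips by stalled E. coli RNA polymerase and titrated with SNAP-549-labelled MS2 coat protein from 0.7 or 1.5 nM, doubling to 3 µM. Step length ran from 0.8–1.5 h at the lowest concentration to 10–20 min at the highest. The apparent KD is the median over clusters for each design, from curve-fitted normalised cluster fluorescence.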

[1] = Eterna round: R95, input ligand: microRNA oligo, concentration not stated
[2] = input ligand: microRNA oligo, concentration not stated
[3] = Eterna round: R95, input ligand: FMN 200 uM
[4] = Eterna round: R95, input ligand: none

| Sequence | apparent KD of MS2 coat protein [1] | apparent KD of MS2 coat protein (input ligand: FMN 200 uM) | apparent KD of MS2 coat protein (input ligand: none) | apparent KD of MS2 coat protein [2] | other results |
| --- | --- | --- | --- | --- | --- |
| AGAUCACAUGAGGAUCACCCAUGUGAGGAUAUGAUACUAUGUACUUCGGUACAUAGUAUCAGAAGGCGCGUGAA [Ex1-3: 72] (puzzle: Exclusion 1) | 28.5 nM |  |  |  |  |
| AAAUUAGCAAGUAGAUCCGACAUGAGGAUCACCCAUGUAAUCUAAUAUUACGCUGCAUGAGAGUGCGCUCGUCUUAG [Sensor-V1 #16] (Eterna round: R97, puzzle: Sensor, turn-off variant 1) |  | 211 nM | 238 nM |  |  |
| AAUCCACAUGAGGAUCACCCAUGUCAGGAUAUCGCGCGCGCGUUUUCGGUCUUUCGCGCGAGAAGGGACGACUG (puzzle: Exclusion 1) | 14.1 nM |  |  |  |  |
| UGAUGGAGGCAGGAUAUUUUGAUGGAUACGAUAAAAGAAGGGCUGACAUGAGGAUCACCCAUGUGGAUAGCUCA [Eternabot (L1) Solution 39] (Eterna round: R97, puzzle: Exclusion 6) |  | 17.8 nM | 14.4 nM |  |  |
| GGCAUGCAAGGAUAUACUUGCAGUGAUAUUCGAUAAAGUCUACUUGAGGAUCACCCAAGUAGAAGGUGCAUGCC [Exclusion 2 (Mod6 JL EX2 4.74 Vienna UCT mod of Mamaed)] (Eterna round: R97, puzzle: Exclusion 2) |  | 35 nM | 25.8 nM |  |  |
| AGCUGUGGCCGAGGAUAUCUAUUAAUCCAAACCGAAAUAUAAUCGGACAUGAGGAUCACCCAUGUAGAGAAGGCGGUCUCAGCA [Eli eng2 - 077] (Eterna round: R96, puzzle: Exclusion NG 2) |  |  |  | 53.5 nM |  |
| ACAUCACAGCUAGGAUAUAGAUGACAUGAGGAUCACCCAUGUUGUCCCAUGUUGACGAAAACCGACUAGAAGGAGCUACAGAUG [Ex NG2 #5] (Eterna round: R96, puzzle: Exclusion NG 2) |  | 59.3 nM | 50.1 nM | 52.6 nM |  |
| UCUUAUAGAGGAUAUACAGAUUAUUACAUGAGGAUCACCCAUGUUCUUCAAUGUAUAUAUGUAGAAGGCUAAGGAU [Mat - Exclusion 5 - JL Mod - D9] (Eterna round: R97, puzzle: Exclusion 5) |  | 316 nM | 111 nM |  |  |
| UUUUUUGUAGUGAGGAUAUCGUUGAGGAUGUGGAUCGAGAAGGCACAUGAGGAUCACCCAUGUUAGAUGUGGUU [JR_BMOE4_Sub083] (Eterna round: R96, puzzle: Brourd's mod of Exclusion 4) |  | 363 nM | 166 nM | 134 nM |  |
| GAAAACGUAGGAUAUUAAUACUUAGACAUGAGGAUCACCCAUGUUUGGUGGGUUUAAGAAUGAGAAGGGCGAUGAA [EX5 #7] (Eterna round: R97, puzzle: Exclusion 5) |  | 222 nM | 189 nM |  |  |
| GCAAGCUUUUUGCGUAGGAACAUGAGGAUCACCCAUGUGCAUGGAAAGAUGGGAAAGAAAGGAGAGAAAGAUGAAAG [Alacar 1] (Eterna round: R97, puzzle: Sensor, turn-off variant 1) |  | 101 nM | 88.1 nM |  |  |
| CGGUGUAACGUAGGAUAUCAGCGCAACUGACGAUGAGAAGGACGACAUGAGGAUCACCCAUGUGAUUUCUCAAUAUUAUACAUC [Prohibition 87 - Jieux - Exclusion NG 1] (Eterna round: R96, puzzle: Exclusion NG 1) |  | 511 nM | 74.5 nM | 58.9 nM |  |
| AAAGUGUGAGGAUAUCCGGGACUGGGCCGGGAGGUUCGGAAGGAGAAGGCACAUGAGGAUCACCCAUGUAACGG [Excls4-X] (puzzle: Exclusion 4) | 46.9 nM |  |  |  |  |
| AGCUGUGGCCGAGGAUAUCUAUCUCCAAUAACCGAAAUAUAAUCGGACAUGAGGAUCACCCAUGUAGAGAAGGCGGUCUCAGCA [Eli eng2 - 090] (Eterna round: R96, puzzle: Exclusion NG 2) |  |  |  | 15 nM |  |
| UUCAGACAUGAGGAUCACCCAUGUGAGGAUAUGAUGCAGCAGUGGUCUACGCUGUGCAUCAGAAGGCACAUGUG (puzzle: Exclusion 1) | 99.6 nM |  |  |  |  |
| CCGGAAAUACAGGAUAUAGGAGUCAAUAGACUCCUAGAAGGGUAUACAUGAGGAUCACCCAUGUGUCCUACCGG [Fiskers Ex 6 - 66] (puzzle: Exclusion 6) | 25.1 nM |  |  |  |  |
| CCGCAAAUGCAGGAUAUCGUAUCGGAUACGAUACGAGAAGGGCGAACAUGAGGAUCACCCAUGUGUCCUAGCGG [Fiskers Ex 6 - 40] (puzzle: Exclusion 6) | 40.3 nM |  |  |  | apparent KD of MS2 coat protein [3]: 34.7 nM; apparent KD of MS2 coat protein [4]: 51.6 nM |
| UAUAUGUGAGGAUAUCAGGUGUGCUAGCGUACUGGUACAUCUGAGAAGGCACAUGAGGAUCACCCAUGUUUCUU [JL-ex4-3.24 Brourd mod] (puzzle: Exclusion 4) | 24.4 nM |  |  |  |  |

| Sequence | apparent KD of MS2 coat protein [1] | apparent KD of MS2 coat protein (input ligand: FMN 200 uM) | apparent KD of MS2 coat protein (input ligand: none) | apparent KD of MS2 coat protein [2] | other results |
| --- | --- | --- | --- | --- | --- |
| CUGAGCAGACGGAGAUCCAACAUGAGGAUCACCCAUGUCUCAAAAGCUUUUUGCUCGUCUUAUCCUCCUCUGUUCAC [Esquitian 1] (Eterna round: R97, puzzle: Sensor, turn-off variant 1) |  | 26.4 nM | 26 nM |  |  |
| GGUGGGCUAGGAUAUGCUUUGGGAGGGCAUUCCUUCGAUAAACUUGAGGAUCACCCAAGUAGAAGGAGCUUGCC [salish99_ex2_r4_022] (Eterna round: R97, puzzle: Exclusion 2) |  | 33.9 nM | 15.3 nM |  |  |
| UCUCUUGGGCAAGGAUAUCCUGUGCGGUUCCGGCUCGUGUCUGUCACAUGAGGAUCACCCAUGUGGGAGAAGGUGCCUGCGGUC [Design 81] (Eterna round: R96, puzzle: Exclusion NG 2) |  | 13.6 nM | 15.1 nM | 9.94 nM |  |
| CUUAGUUGGUAAGGAUAUCCUACAUUAUUCUGACCCGUGCAAGCUACAUGAGGAUCACCCAUGUGGGAGAAGGUGCGUUAACGU [Design 7] (Eterna round: R96, puzzle: Exclusion NG 2) |  | 53.5 nM | 46 nM | 42.1 nM |  |
| GAUUAUGCGAGCUUUAGGGACAUGAGGAUCACCCAUGUUCGUCUUAUUAGUCUAGGUACACUAACAUACCUAAAUCU [JMF 18] (puzzle: Sensor v3, turn-off variant 1) | 38.8 nM |  |  |  | apparent KD of MS2 coat protein [3]: 21.3 nM; apparent KD of MS2 coat protein [4]: 21.9 nM |
| AGCUGAGCAGGAUAUACAUGAGGAUCACCCAUGUUGGUCAAGCGACGAUAGUCGCAAUGUAGAAGGGCUCAGCU [E3/8-D2] (Eterna round: R97, puzzle: Exclusion 3) |  | 114 nM | 357 nM |  |  |
| AGAAAGCAAGGAUAUACAAGUAAACGACGGAAAGUAGAGAGACAUGAGGAUCACCCAUGUAGAAGGUGCGAGAG [JR_Exclu2_Sub034] (puzzle: Exclusion 2) | 26.1 nM |  |  |  | apparent KD of MS2 coat protein [3]: 24.7 nM; apparent KD of MS2 coat protein [4]: 26.2 nM |
| GAAAAGGUAGGAUAUACGAAAAAAAAGGGUAGAAAAAAUACACAUGAGGAUCACCCAUGUAGAAGGACCAAAAG [salish99_ex2_r3_073] (Eterna round: R96, puzzle: Exclusion 2) |  |  |  | 26.7 nM |  |
| AGAAGUAGCAACCGAUCCUACAUGAGGAUCACCCAUGUAGCAAGACGUGCACGCGAAGCUCGUCAGACUACCAGAUG [salish99_TOv1_r3_022] (puzzle: Sensor v3, turn-off variant 1) | 210 nM |  |  |  | apparent KD of MS2 coat protein [3]: 216 nM; apparent KD of MS2 coat protein [4]: 168 nM |
| UAUAUAUAGUAAGGAUAUGUAUUAAAUUUAUAAACAGAAGGUACUGACAUGAGGAUCACCCAUGUUUUAGUGUGGGCAUGUAGA [JMF's solution 75] (Eterna round: R96, puzzle: Exclusion NG 1) |  |  |  | 69 nM |  |
| CGAUGCUCGAAUCCACAUGAGGAUCACCCAUGUCGAGUUAGCGAGGAUAUCGGUGACACAUAGUACGAGAAGGCGCGAACCUGA [Ex NG3 #25] (Eterna round: R96, puzzle: Exclusion NG 3) |  | 50.9 nM | 34.8 nM | 28.3 nM |  |
| CUAGUGUAAGGAUAUGCCUGGCCGUGAGGCCAGAUUGAAUAGCAGAAGGUACAUGAGGAUCACCCAUGUACGGG [jl-ex4-4.62 ViennaUCT mod] (Eterna round: R97, puzzle: Exclusion 4) |  | 279 nM | 26.4 nM |  |  |
| GGGUGUCGAGUUAGGAUAUCGAUGCCGUAACGGCUCGAGAAGGGACUUGAGGAUCACCCAAGUCUGGUCGAGGC [Rierariis] (Eterna round: R97, puzzle: Brourd's mod of Exclusion 4) |  | 23.4 nM | 18.4 nM |  |  |
| CCAGGCGUCUUGGCUCGUCUUAUUUGGAGAGGAUUGAUAACAUGAGGAUCACCCAUGUGUGUGGGAGAGUUGCAGUG [JR_SV3TOV2_Sub018] (puzzle: Sensor v3, turn-off variant 2) | 425 nM |  |  |  | apparent KD of MS2 coat protein [3]: 335 nM; apparent KD of MS2 coat protein [4]: 374 nM |
| GGAGCAAGUGUCAGGAUAUCGUGGUCGAUAGAUCACGAGAAGGGACAUGAGGAUCACCCAUGUGCCUCAGCUCC [Mat - Exclusion 4 - Eli Mod - D60] (Eterna round: R97, puzzle: Brourd's mod of Exclusion 4) |  | 736 nM | 214 nM |  |  |
| AACAGUCUGGAGGAUAUGCUGGAUUAAUAUCUGGCAGAAGGCUUGACAUGAGGAUCACCCAUGUAAAUACUACC [Omei Ex6 A3] (Eterna round: R97, puzzle: Exclusion 6) |  | 25.9 nM | 20.8 nM |  |  |
| AGUCAGGCGGUAGGAUAUCCAAACCGAGUGACCCUUUCAUAACAUGAGGAUCACCCAUGUCGGUGGGAGAAGGGCCGUACGGCG [JL ViennaUCT Atra mod 2] (Eterna round: R96, puzzle: Exclusion NG 2) |  | 305 nM | 343 nM | 145 nM |  |
